Laboratory results: CN116715774A (WUHAN ABCLONAL INC, dated 2023)
Values belong to the binder of their own block, whether it stands above or below them.

Biological target: T1, 重组人AXL蛋白 (recombinant human AXL protein) (human, UniProt P30530 26-449, limits assumed)
T1 construct: also called 重组人AXL截短蛋白; 人受体酪氨酸激酶AXL
T1 sequence (looked up): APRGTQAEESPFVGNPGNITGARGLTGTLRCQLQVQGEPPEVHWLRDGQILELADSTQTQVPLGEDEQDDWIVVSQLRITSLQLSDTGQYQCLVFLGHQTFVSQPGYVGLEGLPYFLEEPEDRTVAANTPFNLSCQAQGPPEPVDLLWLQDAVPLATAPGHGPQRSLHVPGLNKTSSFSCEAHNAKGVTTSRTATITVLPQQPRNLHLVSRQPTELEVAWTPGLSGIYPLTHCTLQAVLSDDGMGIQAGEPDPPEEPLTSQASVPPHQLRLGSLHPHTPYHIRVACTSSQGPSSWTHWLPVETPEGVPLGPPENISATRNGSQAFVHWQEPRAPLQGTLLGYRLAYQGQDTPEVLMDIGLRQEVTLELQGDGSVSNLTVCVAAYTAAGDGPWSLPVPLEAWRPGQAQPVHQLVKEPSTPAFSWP
Assay: BLI (Gator biomolecular interaction analyser), antibody against recombinant human AXL

- Kd: 1.14 nM
- koff: 0.000387 s⁻¹
- kon: 341000 M⁻¹ s⁻¹
B1: 兔单克隆抗体B (rabbit monoclonal antibody B against human AXL) (antibody, V domains shown)
VH: QEQLKESGGGLVQPGGSLKLSCKASGFSLSYYGVNWVRQAPGKGLEWIACIDPVFGATYYASWVNDRFTISSHNAQNTLYLQLSSLTPADTATYFCARGRYYRYGYTYATGMDIWGPGTLVTVSS
VL: AIDMTQTPSSVSAAVGDTVTINCQASEDIYSFLAWYQQKPGHSPKLLIYDASKLASGVSSRFKGSGSGTQFTLTISGVQCDDAATYYCQQTYSVSNADTAFGGGTEVVVKG
notes: also called 抗人AXL兔单克隆抗体B

- Kd: 0.555 nM
- koff: 0.000132 s⁻¹
- kon: 237000 M⁻¹ s⁻¹
B2: 兔单克隆抗体A (rabbit monoclonal antibody A against human AXL) (antibody, V domains shown)
VH: QSVEESGGRLVTPGTPLTLTCTVSGIDLSTYAMIWVRQAPGEGLEWIGTIYTDGATAYARWAKGRFTISKTSTTVDLKMTSLTTEDTATYFCARGFGISKFVFSLWGPGTLVTVSL
VL: DIVMTQTPASVEAAVGDTVTIKCQASQNIYSNLAWYQQKPGQPPKLLIYFASNLPSGVPSRFKGSGSGTEYTLTISGVQCDDAATYYCQNYYINEIVFGGGTEVVVKG
notes: also called 抗人AXL兔单克隆抗体A
